Experiment: yeast display, Sf9 membrane polyspecificity reagent, FACS + sequencing; frameworks hold sequencing errors
How it was run: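 Galactose induction of a Saccharomyces cerevisiae BJ5465 synthetic nanobody display library ran 36–48 hours. The cells were then stained for 1 hour at 4 °C with 10% biotinylated, detergent-solubilized Sf9 membrane reagent, pulled down on streptavidin microbeads and FACS-sorted into low and high (top ~1%) gates on expression and reagent-binding fluorescence. Labels for polyreactivity follow the gate of origin.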

| Sequence | polyreactivity (PSR sort gate) |
| --- | --- |
| QVQLVESGGGLVQAGGSLRLSCAASGSIFYYYVMGWYRQAPGKERELVAAITYSGGRTYYADSVKGRFTISRDNAKYTVYLQMNSLKPEDTAVYYCNVVIYYFNSRSVFYDYDYWGQGTQVTVSS | high polyreactivity |
| QVQLVESGGGLVQAGGSLRLSCAASGSIIDWNAMGWYRQAPGKERELVAVISWGGGSTYADSVKGRFTISRDNAKNTVYLQMNSLKPEDTAVYNCNKEPIYYPVSDYDYWGQGTQVTVSS | low polyreactivity |
| QVQLVESGGGLVQAGGSLRLSCAASGSIIGIYALGWYRQAPGKERELVAAISWSGGSTYYADSVKGRFTISRDNAKNTVYLQMNSLKPEDTAVYYCAARGHYQYYWGQGTQVTVSS | low polyreactivity |
| QVQLVESGGGLVQAGGSLRLSCAASGSIIGLYVMGWYRQAPGKERELVAAISWSGGSTYYADSVKGRFTISRDNAKNTVYLQMNSLKPEDTAVYYCAARVYSVADYYYWGQGTQVTVSS | low polyreactivity |
| QVQLVESGGGLVQAGGSLRLSCAASGSIIGRNAMGWYRQAPGKERELVAAISTRGGRTYYADSVKGRFTISRDNAKNTVYLQMNSLKPEDTAVYYCAATYQYLKSGYYWGQGTQVTVSS | high polyreactivity |
| QVQLVESGGGLVQAGGSLRLSCAASGSIIGYYAMGWYRQARGKERELVAAISSSGASTYYADSVKGRFTISRDNAKYTVYLQMNSLKPEDTAVYYCNAARRYPTRGGYWGQGTQVTVSS | high polyreactivity |
| QVQLVESGGGLVQAGGSLRLSCAASGSIIHDNAMGWYRQAPGKERELVAAINRGGSTHYADSVKGRFTISRDNAKNTVYLQMNSLKPEDTAVYYCAADGIRPEVGYWGQGTQVTVSS | low polyreactivity |
| QVQLVESGGGLVQAGGSLRLSCAASGSIIKPYAMGWYRQAPGKERELVAAIRSSGGRTNYADSVKGRFTISRDNAKNTVYLQMNSLKPEDTAVYYCAKRYYGRKYYYWGQGTHVTVSS | high polyreactivity |
| QVQLVESGGGLVQAGGSLRLSCAASGSIIKRNAMGWYRQAPGKERELVASISSGGSTKYADSVKGRFTISRDNAKNTVYLQKNSLKPEDTAVSYCAKRSSQTRRAYDYGGQGTQVTVSS | low polyreactivity |
| QVQLVESGGGLVQAGGSLRLSCAASGSIILRYAMGWYRQATGKERELVAAISNRGGSTYYADSVKGRFTISRDNAKNTVYLQMNSLKPEDTAVYYCAVRSTNERSAGKRRYYYWGQGTQVTVSS | high polyreactivity |
| QVQLVESGGGLVQAGGSLRLSCAASGSIIQGYVMGWYRQAPGKERELVAAISNSGSSTYYADSVKGRFTISRDNAKNTVYIQMNSLKPEDTAVYYCAVLRSYRGYKYGYWGQGTQVTVSS | high polyreactivity |
| QVQLVESGGGLVQAGGSLRLSCAASGSIIRAYAMGWYRQAPGKERELVAAITIGDSTYYADSVKGRFTISRDNAKNTVYLQMNSLKPEDTAVYYCAAKSQHLYTRRFNYWGQGTQVTVSS | low polyreactivity |
| QVQLVESGGGLVQAGGSLRLSCAASGSIIRGNAMGWYSQAPGKERELVATITNGGSTNYADSVKGRFTISRDNAKNTVYFQMNSMKPEDTAVYYCNADHSYHIASTRHVDFWGQGTQVTVSS | low polyreactivity |
| QVQLVESGGGLVQAGGSLRLSCAASGSIIRRYAMGWYRQAPGKERELVAAISSNGGSTYYADSVKGRFTISRDNAKNTVYLQMNSLKPEDTAVYYCNKLSSYVVARRTTEYDYWGQGTQVTVSS | high polyreactivity |
| QVQLVESGGGLVQAGGSLRLSCAASGSIIRWNAMGWYRQAPGKERELVAAITGGGGNTYYSDSVKGRFTISRDNAKNTVYLQMNSLKPEDTAVYYCNVVYRNYRNDYWGQGTQVTVSS | high polyreactivity |
| QVQLVESGGGLVQAGGSLRLSCAASGSIISINAMGWYRQAPGKERELVAAITWSGGSTYYADSVKGRVTISRDNAKNTVYLQMNSLKPEDTAVYYCAAAFWFQRGTGYYTSKFDYWGQGTQVTVSS | low polyreactivity |
| QVQLVESGGGLVQAGGSLRLSCAASGSIITWNAMGWYRQAPGKERELVAAIDWDGGSTYYADSVKGRFTISRDNAKNTVYLQMNSLKPEDSAVYYCAATYGWYTGRYPSGHYYYWGQGTQVTVSS | low polyreactivity |
| QVQLVESGGGLVQAGGSLRLSCAASGSIITWYTMGWYRQATGKERELVASISSGGTTKYADSVKGRFTISRDNAKNTVYLQMNCLKPEDTAVYYCAAEYIAYYGTGTYYGLDYWGQGTQVTVSS | low polyreactivity |
| QVQLVESGGGLVQAGGSLRLSCAASGSIIVRNAMGWYRQAPGKERELVAAISKSGGSTYYADSVKGRFTISRDNAKNTVYLQMNSLKPEDTAVYYCAVYPRSTLRTFQRDYWGQGTQVTVSS | high polyreactivity |
| QVQLVESGGGLVQAGGSLRLSCAASGSIIVWNAMGWYRQAPGKERELVASITSGASTYYADSVKGRFTISRDNAKNTVYLQMNSLKPEDTAVYFCAAYYGYTDVWYLYSGYNYWGQGTQVTVSS | low polyreactivity |
| QVQLVESGGGLVQAGGSLRLSCAASGSIIVYNAMGWYRQAPGKERELVAAITGRVGSTYYADSVKGRFTISRDNAKNTVYLQMNSMKPEDTAVYYCAARSYFKWWYAMDYWGQGTQVTVSS | high polyreactivity |
| QVQLVESGGGLVQAGGSLRLSCAASGSIIVYYAMGWYRQAPGKQRELVAANDQSGGSTYYADSVKGRFTISRDNAKNTVYLQMNSLKPEDTAVYYCASVHSLYWLGDDTYGYDYWGQGTQVTVSS | low polyreactivity |

| Sequence | polyreactivity (PSR sort gate) |
| --- | --- |
| QVQLVESGGGLVQAGGSLRLSCAASGSIIYLYAMGWYRQAPGKERELVAAISKSGSRTYYADSVKGRFTISRDNAKNTVYLQMNSLKPEDTAVYYCATPYRVYGEGYYWGQGTQVTVSS | high polyreactivity |
| QVQLVESGGGLVQAGGSLRLSCAASGSIIYLYAMGWYRQAPGKERELVAAITSIGGSTYADSVKGRFTISRDNAKNTVYLQMNSLKPEDTAVYYCNTDEYPLTVQVQYYYWGQGTQVTVSS | low polyreactivity |
| QVQLVESGGGLVQAGGSLRLSCAASGSIIYPYVMGWYRQAPGKERELVAAISASGGSTYYADSMKGRFTISRDNAKNTVYLQMNSLKPEDTGVYYCAKYYRFRDDYDYWGQGTQVTVSS | high polyreactivity |
| QVQLVESGGGLVQAGGSLRLSCAASGSIIYQYAMGWYRQAPGKERELVAAITWSGGSTYYADSVKGRFTISRDNAKNTVYLQMNSLKPEDTAVYYCAAYAYGGRINGYRTYRYNYWGQGTQVTVSS | high polyreactivity |
| QVQLVESGGGLVQAGGSLRLSCAASGSILAINAMGWYRQAPGKERELVAAINWSGGSTFYADSVKGRFTISRDNAKNTVYLQMNSLKPEDTAVYYCNVEWTDSERGDYYVDYDYWGQGTQVTVSS | low polyreactivity |
| QVQLVESGGGLVQAGGSLRLSCAASGSILAYNAMGWYRKAPGKERELVAAIRLSGGSTYYADSVKGRFTISRDNAKNTVYLQMNSLKPEDTAVYYCARRYYRYDTRKYNYWGQGTQVTVSS | high polyreactivity |
| QVQLVESGGGLVQAGGSLRLSCAASGSILDNYGMGWYRQAPGKERELVASISGGAGSPNYADSVKGRFTISRDNAKNTVYLQMYSLKPEVTAVYDCNADQIFGPALNLWKLDYWGQGNQVTVSS | low polyreactivity |
| QVQLVESGGGLVQAGGSLRLSCAASGSILDPNAMGWYRQAPGKERELVAAISSSGGSTYYADSVKGRFTISRDNAKNTVYLQMNSLKPEDTAVYYCAADHFIPIYSKYDYWGQGTQVTVSS | high polyreactivity |
| QVQLVESGGGLVQAGGSLRLSCAASGSILDPNAMGWYRQAPGKERELVASISRGDNTYYADSVKGRFRISRDNAKNTVYLQMNSLKPEDTAVYYCAADYSWVVWHDYWGQGTQVTVSS | low polyreactivity |
| QVQLVESGGGLVQAGGSLRLSCAASGSILDSNAMGWYRQAPGKERELVAAITSGGSTYYADSVKGRFTISRDNAKNTVYLQKNSLKPEDTAVYYCDTPVASVTGYDYWGQGTQVTVSS | low polyreactivity |
| QVQLVESGGGLVQAGGSLRLSCAASGSILDSNAMGWYRQAPGKERELVAAITSGGSTYYADSVKGRFTISRDNAMNSVYLQMNSLKPEDTAVYYCAAAYLGYGAVQPSYEGGYWGQGTQVTVSS | low polyreactivity |
| QVQLVESGGGLVQAGGSLRLSCAASGSILDYYVMGWYRQAPGKERELVAAIRGGGSTYYADSVKGRFTISRDNEKNTVYLQMNRMKREDTAVNYCAAAVYGSYTTYGYFEHYFWGQGTQVTVSS | low polyreactivity |
| QVQLVESGGGLVQAGGSLRLSCAASGSILEGNGMGWYRQAPGKERELVASITRSGGSTYYSDSVKGRFTISRDNAKNTVYLQMNSLKPEDTAVYYCAAKGSTYGLTIRWYPYLHGYNYWGQGTQVTVSS | low polyreactivity |
| QVQLVESGGGLVQAGGSLRLSCAASGSILEVYAMGWYRQAPGKERELVAAISDGDSTYYADSVKGRFTISRDNAKNTVYLQMNSLKPEDTAGYYCAAEFVGTLWWYDYWGQGTQVTVSS | low polyreactivity |
| QVQLVESGGGLVQAGGSLRLSCAASGSILFGYGMGWYRQAPGKERELVATITTSGGTYYADSVKGRFTISRDNAKNTVYLQMNSLKPEDTAVYYCAATAAALDGNTIMYYWGQGTQVTVSS | low polyreactivity |
| QVQLVESGGGLVQAGGSLRLSCAASGSILGDYAMGWYRQAPGKEREFVAAIDGSDGSTYYADSVKGRFTISRDNAKNTVYLQMNSLKPEDTAVYYCNVVRQGKREFDYWGQGTQVTVSS | low polyreactivity |
| QVQLVESGGGLVQAGGSLRLSCAASGSILGLYAMGWYRQAPEKERELVAGISSGGNTNYADSVKGRFTISRDNAKNTVYLQMNSLKPEDTAVYYSYDRIYRHYSTYSWTRYDYWGEGTQVTVSS | high polyreactivity |
| QVQLVESGGGLVQAGGSLRLSCAASGSILGNAMGWYRQAPGKERELVAAISRNGDSTYYADSVKGRFTISRDNAKNTVYLQMNSLKPEDTAVYYCNAQWFFYGYIAGDYWGQGTQVTVSS | high polyreactivity |
| QVQLVESGGGLVQAGGSLRLSCAASGSILGNYAMGWYRQAPGKEREVVAAISSSGRTSYADSVKGRFTISRDNAKNTVYLQMNSLKPEDTAVYYCNASNYIVLINDPDAAPWLYDYWGQGTQVTVSS | low polyreactivity |
| QVQLVESGGGLVQAGGSLRLSCAASGSILGTYAMGWYRQAPGKERELVAAISSSGRTSYADSVKGRFTISRDNAKNTVYLQMNSLKPEDTAVYYCNASNYIFLINDPDAAPWLYDYWGQGTQVTVSS | low polyreactivity |
| QVQLVESGGGLVQAGGSLRLSCAASGSILGYYAMGWYRHAPRKERELVASITGNGGSTYYADSVKGRFTISRDNAKNTVYLQMISLKPEDTAVYYCAKRVGPYKLGEYDYWGQGTQVTVSS | high polyreactivity |

Source: the nanobody polyreactivity screen of Harvey et al. (2022)
